Assay results as given in patent US20210380703A1 (RIGEL PHARMACEUTICALS, published 2021).

How the values were obtained:
[1] = target: mouse ACVR2A (mouse, UniProt P27038 20-135, limits assumed); assay: ELISA
How it was run: (§1)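 ELISA measured binding of ACVR2A-specific monoclonal antibodies to human and mouse ACVR2A. Biotinylated goat anti-human kappa light chain served as positive control and human Fc as negative control.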

[2] = target: T1, human ACVR2A (human, UniProt P27037 20-135, limits assumed); assay: ELISA
T1 construct: also called activin receptor, type II A
How it was run: as §1

[3] = target: T2, biotinylated goat anti-human kappa light chain; assay: ELISA, positive control
T2 construct: positive control of the ELISA
How it was run: as §1
Further: test concentration or dose not given here.

T1 sequence (P27037 20-135 limits assumed): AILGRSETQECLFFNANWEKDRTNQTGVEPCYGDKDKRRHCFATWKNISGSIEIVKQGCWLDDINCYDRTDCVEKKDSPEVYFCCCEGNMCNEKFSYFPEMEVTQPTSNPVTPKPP
mouse ACVR2A, sequence (P27038 20-135 limits assumed): as the sequence (P27037 20-135 limits assumed) above, with K20R, V73I counted along it

B1: 367_C09 (antibody, V domains shown)
VH: EVQLLESGGGLVQPGGSLRLSCAASGFTFDSYGMHWVRQAPGKGLEWVASINYNGGYTSYADSVKGRFTISRDNSKNTLYLQMNSLRAEDTAVYYCARAANWHDTHLDYWGQGTLVTVSS
VL: DIQMTQSPSSLSASVGDRVTITCRASQSILSYVNWYQQKPGKAPKLVIYAATSRHSGVPSRFSGSGSGTDFTLTISSLQPEDFATYYCQQSYNTPLTFGGGTKVEIK
notes: Group I
[1]
  optical density: 2.77 OD
[2]
  optical density: 2.41 OD
[3]
  optical density: 3.44 OD

B2: 367_E08 (antibody, V domains shown)
VH: EVQLLESGGGLVQPGGSLRLSCAASGFTFSDYGMNWVRQAPGKGLEWVASINYNGGYTSYADSVKGRFTISRDNSKNTLYLQMNSLRAEDTAVYYCARAATWHDTHLDYWGQGTLVTVSS
VL: DIQMTQSPSSLSASVGDRVTITCRASQSILSYLNWYQQKPGKAPKLLIYATTSRASGVPSRFSGSGSGTDFTLTISSLQPEDFATYYCQQSYDNPLTFGGGTKVEIK
notes: Group II
[1]
  optical density: 2.37 OD
[2]
  optical density: 2.04 OD
[3]
  optical density: 3.43 OD

B3: 367_F06 (antibody, V domains shown)
VH: EVQLLESGGGLVQPGGSLRLSCAASGFTFSSYGMNWVRQAPGKGLEWVSSINYNSGYTSYADSVKGRFTISRDNSKNTLYLQMNSLRAEDTAVYYCARAANWHDTALDYWGQGTLVTVSS
VL: DIQMTQSPSSLSASVGDRVTITCRASQSISSYVNWYQQKPGKAPKLLIYAVTSRASGVPSRFSGSGSGTDFTLTISSLQPEDFATYYCQQSYDSPLTFGGGTKVEIK
notes: Group I
[1]
  optical density: 2.04 OD
[2]
  optical density: 2.01 OD
[3]
  optical density: 3.35 OD

B4: 367_F10 (antibody, V domains shown)
VH: EVQLLESGGGLVQPGGSLRLSCAASGFTFDSYGMNWVRQAPGKGLEWVSGINYNSGYTSYADSVKGRFTISRDNSKNTLYLQMNSLRAEDTAVYYCARAATWHDTHLDYWGQGTLVTVSS
VL: DIQMTQSPSSLSASVGDRVTITCRASQSILTYLNWYQQKPGKAPKLLIYAATSRASGVPSRFSGSGSGTDFTLTISSLQPEDFATYYCQQSYDTPLTFGGGTKVEIK
notes: Group II
[1]
  optical density: 2.36 OD
[2]
  optical density: 2.21 OD
[3]
  optical density: 3.42 OD

B5: 367_C12 (antibody, V domains shown)
VH: EVQLLESGGGLVQPGGSLRLSCAASGFTFSSYGMHWVRQAPGKGLEWVSGINYNGGYTSYADSVKGRFTISRDNSKNTLYLQMNSLRAEDTAVYYCARAATWHDTHLDYWGQGTLVTVSS
VL: DIQMTQSPSSLSASVGDRVTITCRASQSILSYVNWYQQKPGKAPKLLIYATTSRHSGVPSRFSGSGSGTDFTLTISSLQPEDFATYYCQQSYESPLTFGGGTKVEIK
notes: Group II
[1]
  optical density: 2.1 OD
[2]
  optical density: 2.06 OD
[3]
  optical density: 3.58 OD

B6: 367_G03 (antibody, V domains shown)
VH: EVQLLESGGGLVQPGGSLRLSCAASGFTFDSYSMHWVRQAPGKGLEWVANINYNGGYTSYADSVKGRFTISRDNSKNTLYLQMNSLRAEDTAVYYCARAATWHDTHLDYWGQGTLVTVSS
VL: DIQMTQSPSSLSASVGDRVTITCRASQSIVSYVNWYQQKPGKAPKLVIYAATSRHSGVPSRFSGSGSGTDFTLTISSLQPEDFATYYCQQSYDLPLTFGGGTKVEIK
notes: Group II
[1]
  optical density: 2.63 OD
[2]
  optical density: 2.59 OD
[3]
  optical density: 3.6 OD

B7: 368_A02 (antibody, V domains shown)
VH: EVQLLESGGGLVQPGGSLRLSCAASGFTFDSYGMNWVRQAPGKGLEWVAGINYNGGYKSYADSVKGRFTISRDNSKNTLYLQMNSLRAEDTAVYYCARAANWHDTHLDYWGQGTLVTVSS
VL: DIQMTQSPSSLSASVGDRVTITCRASQSIISYVNWYQQKPGKAPKLVIYAATSRASGVPSRFSGSGSGTDFTLTISSLQPEDFATYYCQQSYDTPLTFGGGTKVEIK
notes: Group I
[1]
  optical density: 2.74 OD
[2]
  optical density: 2.57 OD
[3]
  optical density: 3.69 OD

B8: 367_F08 (antibody, V domains shown)
VH: EVQLLESGGGLVQPGGSLRLSCAASGFTFSSYGMHWVRQAPGKGLEWVSSINYNSGYTSYADSVKGRFTISRDNSKNTLYLQMNSLRAEDTAVYYCARAATWHDTHLDYWGQGTLVTVSS
VL: DIQMTQSPSSLSASVGDRVTITCRASQSILSYVNWYQQKPGKAPKLVIYAATSRASGVPSRFSGSGSGTDFTLTISSLQPEDFATYYCQQSNELPLTFGGGTKVEIK
notes: Group II
[1]
  optical density: 2.19 OD
[2]
  optical density: 2.08 OD
[3]
  optical density: 3.54 OD

B9: 367_G11 (antibody, V domains shown)
VH: EVQLLESGGGLVQPGGSLRLSCAASGFTFSSYGMHWVRQAPGKGLEWVASINYNGGYTSYADSVKGRFTISRDNSKNTLYLQMNSLRAEDTAVYYCARAATWHDTHLDYWGQGTLVTVSS
VL: DIQMTQSPSSLSASVGDRVTITCRASQSILTYLNWYQQKPGKAPKLLIYAATSRHSGVPSRFSGSGSGTDFTLTISSLQPEDFATYYCQQSDDSPLTFGGGTKVEIK
notes: Group II
[1]
  optical density: 2.67 OD
[2]
  optical density: 2.56 OD
[3]
  optical density: 3.56 OD

B10: 367_D11 (antibody, V domains shown)
VH: EVQLLESGGGLVQPGGSLRLSCAASGFTFDSYGMHWVRQAPGKGLEWVSNINYNGGYKSYADSVKGRFTISRDNSKNTLYLQMNSLRAEDTAVYYCARAANWHDTALDYWGQGTLVTVSS
VL: DIQMTQSPSSLSASVGDRVTITCRASQSIISYLNWYQQKPGKAPKLLIYAATSRASGVPSRFSGSGSGTDFTLTISSLQPEDFATYYCQQSYDSPLTFGGGTKVEIK
notes: Group I
[1]
  optical density: 2.54 OD
[2]
  optical density: 2.4 OD
[3]
  optical density: 3.39 OD

B11: 367_H08 (antibody, V domains shown)
VH: EVQLLESGGGLVQPGGSLRLSCAASGFTFDSYGMNWVRQAPGKGLEWVSSINYNGGYTSYADSVKGRFTISRDNSKNTLYLQMNSLRAEDTAVYYCARAATWHDTHLDYWGQGTLVTVSS
VL: DIQMTQSPSSLSASVGDRVTITCRASQSILTYVNWYQQKPGKAPKLLIYAATSRHSGVPSRFSGSGSGTDFTLTISSLQPEDFATYYCQQSYNLPLTFGGGTKVEIK
notes: Group II
[1]
  optical density: 2.47 OD
[2]
  optical density: 2.27 OD
[3]
  optical density: 3.54 OD

B12: 367_E10 (antibody, V domains shown)
VH: EVQLLESGGGLVQPGGSLRLSCAASGFTFSSYGMHWVRQAPGKGLEWVSSINYNGGYTGYADSVKGRFTISRDNSKNTLYLQMNSLRAEDTAVYYCARAATWHDTHLDYWGQGTLVTVSS
VL: DIQMTQSPSSLSASVGDRVTITCRASQSILSYVNWYQQKPGKAPKLLIYAATSRASGVPSRFSGSGSGTDFTLTISSLQPEDFATYYCQQSYELPLTFGGGTKVEIK
notes: Group II
[1]
  optical density: 2.98 OD
[2]
  optical density: 2.77 OD
[3]
  optical density: 3.48 OD

B13: 368_A06 (antibody, V domains shown)
VH: EVQLLESGGGLVQPGGSLRLSCAASGFTFDSYSMHWVRQAPGKGLEWVAGINYNSGYKGYADSVKGRFTISRDNSKNTLYLQMNSLRAEDTAVYYCARAANWHDTHLDYWGQGTLVTVSS
VL: DIQMTQSPSSLSASVGDRVTITCRASQSILSYVNWYQQKPGKAPKLLIYAATSRHSGVPSRFSGSGSGTDFTLTISSLQPEDFATYYCQQSYNSPLTFGGGTKVEIK
notes: Group I
[1]
  optical density: 2.52 OD
[2]
  optical density: 2.25 OD
[3]
  optical density: 3.28 OD

B14: 367_H01 (antibody, V domains shown)
VH: EVQLLESGGGLVQPGGSLRLSCAASGFTFDSYGMNWVRQAPGKGLEWVSGINYNGGYKSYADSVKGRFTISRDNSKNTLYLQMNSLRAEDTAVYYCARAANWHDTALDYWGQGTLVTVSS
VL: DIQMTQSPSSLSASVGDRVTITCRASQSILTYLNWYQQKPGKAPKLVIYAATSRASGVPSRFSGSGSGTDFTLTISSLQPEDFATYYCQQSYDNPLTFGGGTKVEIK
notes: Group I
[1]
  optical density: 2.69 OD
[2]
  optical density: 2.82 OD
[3]
  optical density: 3.65 OD
